Test results published in paper PMC2714705 (Structure (London, England : 1993), 2009).
“And” between values parts separate entries of the source, which are not always exact repeats. Identical values can stand only once.

B1: P22 assembly-naïve portal, full length His-tagged gp1, P26744 1-725 (natural protein)
chain: MADNENRLESILSRFDADWTASDEARREAKNDLFFSRVSQWDDWLSQYTTLQYRGQFDVVRPVVRKLVSEMRQNPIDVLYRPKDGARPDAADVLMGMYRTDMRHNTAKIAVNIAVREQIEAGVGAWRLVTDYEDQSPTSNNQVIRREPIHSACSHVIWDSNSKLMDKSDARHCTVIHSMSQNGWEDFAEKYDLDADDIPSFQNPNDWVFPWLTQDTIQIAEFYEVVEKKETAFIYQDPVTGEPVSYFKRDIKDVIDDLADSGFIKIAERQIKRRRVYKSIITCTAVLKDKQLIAGEHIPIVPVFGEWGFVEDKEVYEGVVRLTKDGQRLRNMIMSFNADIVARTPKKKPFFWPEQIAGFEHMYDGNDDYPYYLLNRTDENSGDLPTQPLAYYENPEVPQANAYMLEAATSAVKEVATLGVDTEAVNGGQVAFDTVNQLNMRADLETYVFQDNLATAMRRDGEIYQSIVNDIYDVPRNVTITLEDGSEKDVQLMAEVVDLATGEKQVLNDIRGRYECYTDVGPSFQSMKQQNRAEILELLGKTPQGTPEYQLLLLQYFTLLDGKGVEMMRDYANKQLIQMGVKKPETPEEQQWLVEAQQAKQGQQDPAMVQAQGVLLQGQAELAKAQNQTLSLQIDAAKVEAQNQLNAARIAEIFNNMDLSKQSEFREFLKTVASFQQDRSEDARANAELLLKGDEQTHKQRMDIANILQSQRQNQPSGSVAETPQ
B2: P22 gp4 (natural protein, bacteriophage P22, UniProt P26746 1-166, looked up)
chain: MQIKTKGDLVRAALRKLGVASDATLTDVEPQSMQDAVDDLEAMMAEWYQDGKGIITGYVFSDDENPPAEGDDHGLRSSAVSAVFHNLACRIAPDYALEATAKIIATAKYGKELLYKQTAISRAKRAPYPSRMPTGSGNSFANLNEWHYFPGEQNADSTTPHDEGNG
B3: P22 gp26 tail needle (natural protein, bacteriophage P22)
chain: MADPSLNNPVVIQATRLDASILPRNVFSKSYLLYVIAQGTDVGAIAGKANEAGQGAYDAQVKNDEQDVELADHEARIKQLRIDVDDHESRITANTKAITALNVRVTTAEGEIASLQTNVSALDGRVTTAENNISALQADYVSKTATTSQSLASPLNVTTSYSVGGKKVLGARQTGWTAATGTANKGVFDADLTFAVSDTYTQSEIQAIANALITERRRTKALEDALRAHGLID

Experiments:
Assay in all cases: cryo-EM structure
[1] = target: T1, P22 assembly-naïve portal, full length His-tagged gp1 (bacteriophage P22), P26744; settings: remark: other sources report otherwise
T1 chain: B1 chain

[2] = target: T2, P22 portal protein gp1 in the tail machine purified from virions (bacteriophage P22, UniProt P26744 1-725)
T2 sequence (looked up): B1 chain

[3] = target: P22 gp9 tailspike (bacteriophage P22, UniProt P12528 1-667)
[4] = target: the molecule itself

Binder	stoichiometry N [1]	binding result [2]	binding result [3]	binding result [4]
B1	11 and 12			
B2		binds	binds	binds
B3				binds
